The values below come from PMC2138045.

Assay [1] concerns the target His-tagged kelch BTBIVR (his:BTBIVR) (Drosophila). The experiment in a line: SEC. For orientation: In gel filtration, larger molecules generally elute earlier.
Assay [2] deals with His-tagged kelch BTB domain (his:BTB) (Drosophila). The experiment in a line: dynamic light scattering.
Assay [3] shares this target. The experiment in a line: SEC.

Where “and” joins values, the source holds several entries; their conditions need not be identical. Equal entries are not always repeated.

The term stoichiometry N denotes a count of units in the complex or per binding partner.

Take “His-tagged kelch BTBIVR (his:BTBIVR) (domain or fragment)”: in assay [1], the stoichiometry N worked out at 2. In the case of “His-tagged kelch BTB domain (his:BTB) (domain or fragment)”, the stoichiometry N in assay [2] is 2; in assay [3], 2 and 4.
